Measurements reported in patent US20130040882A1, “USE OF FIBROBLAST GROWTH FACTOR FRAGMENTS” (NOVARTIS AG, priority 2003, published 2013).
Where “and” joins values, the source holds several entries; their conditions need not be identical. Equal entries are not always repeated. Entries after “also recorded” stand apart in the source; their conditions may differ.

Columns and labels:
selected transcripts = assay: Salmon calcitonin/PTS893 monkey study: real-time PCR of selected transcripts; format: in vivo, cynomolgus monkeys (Macaca fascicularis); settings: normalized to β-actin
Excerpt: Based on the DNA microarray data a set of transcripts was chosen for quantitative analysis by real time-PCR(RT-PCR).
Briefly, the method exploits the SyBr Green dye which intercalates into double stranded DNA. Accumulation of PCR products is detected directly by monitoring the increase in fluorescence of the SyBr Green dye. Reactions are characterised by the point in time during cycling when amplification of a PCR product is first detected rather than the amount of PCR product accumulated after a fixed number of cycles. The higher the starting copy number of nucleic acid target, the sooner a significant increase in fluorescence is observed.
From each RNA sample, cDNA was made using an Applied Biosystem kit (Applied Biosystems # N808-0234) following the recommendation of the manufacturer. The PCR mixture was prepared using the SyBr Green Universal PCR Master Mix (Applied Biosystems #4309155) as follows: 5 μl cDNA template, 400 nM of each primer, 0.2 mM deoxynucleotide triphosphates, 1 mM MgC12 and 0.5 U Taq DNA polymerase, 5 μl SyBr Green PCR buffer and RNase free water up to a final volume of 50 μl. The PCR was performed using the ABI Prism 7700 Sequence Detection System, after a step at 95° C. for 10 min, the step-cycle program was performed for a total of 40 cycles as follows: 95° C. for 30 s, 60° C. for 1 min. A negative control was included: PCR reaction mixture with water in place of the cDNA sample.
The initial template concentration was determined based on the threshold cycle. […] Quantification was performed by calculating the unknown target concentration relative to an absolute standard and by normalizing to a validated endogenous control such as a housekeeping gene (β-actin). Results are presented as percentage of control, once the ratio between the numbers of molecule for the gene of interest divided by the number of molecule for beta-actin has been calculated.
Based on the DNA microarray data the following set of transcripts was chosen for quantitative analysis by RT-PCR: adhesion receptor CD44, angiopoietin, bone morphogenetic protein 5, carbonic anhydrase II, cartilage oligomeric matrix protein, cathepsin K, osteopontin, pre-pro-alpha-2 type I collagen, Spi-B and Y-box binding protein.

somatostatin receptors = settings: cited from earlier work
retinal neuronal layers = system: retinal neuronal layers
Experimental: The total thickness of the outer nuclear layer, the inner nuclear layer and the ganglion cell layer is measured using a standardized magnification after paraffin embedding and hematoxylin and eosin (HE)-staining. Three sections of each eye are measured at three locations each. […] Sections are encoded for evaluation.

[1] = system: hyperoxia-induced angioproliferative retinopathy; assay: Hypoxic vascular retinopathy mouse model: proliferation score on retinal flatmounts after intravitreal injection; format: in vivo, C57/B16J mice; set-up: key to blood vessel tufts: points summed over zones; Zone 2 max 4 P, Zones 3 and 4 max 12 P; avascular zone: scale not given here
Experimental: Seven days old C57/B16J mice are put together with their nursing parent in a sealed container ventilated by a mixture of oxygen and compressed air to a final oxygen concentration of 75%±2% until day 12. Returned at room air, the animals develop a relative ischemia of the retina with neovascularization starting as early as day 14.
On day 12, when animals returned from the oxygen incubation, a volume of 2.0 μl is injected in the eye using a glass pipette with a diameter of about 150 μm at its tip.
For the intravitreal injection of a substance at day 12, mice are anesthetized by inhalation of isoflurane. Five days later the animals are sacrificed after perfusion with dextran-fluorescein and retinal flatmounts are prepared. The coded whole mounts allow to evaluate the vascular changes of the retinal blindly. The proliferation score includes quantification of the proliferation including the papilla, vascular development, vasoconstriction, retinal bleeding and tortuosity of the vessels, features also seen in human retinal disease.
Of those, 8 animals died during hyperoxia or after injection, 2 animals are not perfused, 5 animals are paraffin embedded for evaluation of neurons, of which only three could be examined, and from 29 of these animals retinal flatmounts are prepared.
Evaluation of the angioproliferative changes in the retinal preparations is performed in a masked way on coded preparations. […] The following features are taken into consideration: neovascularisation of the optic disc, blood vessel tufts formation, large clusters of blood vessel tufts, central vasoconstriction and tortuosity of the vessels. Retinal haemorrhages are not taken into account as they may also result from the intraocular injection.
For each criteria, a defined number of points (P) is assigned, which are summed up to a total proliferation score. The higher the score, the worse the hypoxia induced retinopathy. In detail:
Neovascularisation of the optic disc: either 1 or 0 points are assigned in case optic disc proliferation is measured (1 P) or absence (0 P).
Blood vessel tufts formation: the score for blood vessel tufts is determined by dividing every clock hour of the preparation surface in 4 zones: Zone 1 (optic disc zone) is evaluated in addition; Zone 2: one point for every wing (maximal 4 P); Zone 3: one point for every clock hour (maximal 12 P); and Zone 4: one point for every clock hour (maximal 12 P). Thus, a maximum of 28 points is measured provided that no avascular areas exist, and a maximum of 12 points is calculated in case of complete avascularization.
Large clusters of blood vessel tufts: every large cluster of blood vessel tufts covering more than 3 sectors is counted as one point. Thus, maximal 8 points can be measured provided that no avascular areas exist, and maximal 4 points are assignable for complete avascularization.
Central vasoconstriction: 1 point is assigned to a vasoconstriction of zone 1 of greater than 50%; 1 point is allocated if the vasoconstriction is greater than 50% of every wing of zone 2 and 3. Thus, maximal 1 point can be assigned to zone 1, and maximal 4 points each for zones 2, 3 and 4. Since so far no vasoconstriction is ever observed for zone 4, a maximum of total 9 points (without zone 4) can be allotted.
Tortuosity of the vessels: 2 points are assigned if less than one-third of the vessels are tortuous; if the amount of tortuous blood vessels is between one-third and two-thirds, 4 points are allocated, and in case more than two-thirds of the vessels are tortuous, than 6 points are given.
Proliferation in avascular zones is never observed. This is in principle a mutual exclusion of criteria; the existence of vascular proliferations has a higher impact on the retinopathy score than large avascular areas. Therefore, the maximum score ever counted with this system is 38 points using a substance which is considered to enhance vascular proliferation.
The severity of retinopathy varies from animal to animal. […]

[2] = right eye (FGF23CTP), average of all measurements of three animals, x200 magnification
[3] = right eye, FGF23CTP intravitreal, individual animals, retinal flatmounts
[4] = treated right eye (FGF23CTP) vs control left eye (PBS), DF 28

Molecule: Leu8, Asp10, Lysll, A1a16, G1n18, Thr33, A1a34 human PTH 1-34 [PTS893, Leu8, Asp10, Lysll, A1a16, G1n18, Thr33, A1a34 human PTH 1-34 [hPTH(1-34)]]
- Real Time PCR Treatment Effect: Y-box binding protein (bone) (36140_at) (selected transcripts; bone): +26 % respect to control
- Real Time PCR Treatment Effect: Spi-B (35883_at) (selected transcripts): −18 % respect to control
- Real Time PCR Treatment Effect: adhesion receptor CD44 (1372_at) (selected transcripts): No change
- Real Time PCR Treatment Effect: angiopoietin-1 (1929_at) (selected transcripts): No change
- Real Time PCR Treatment Effect: bone morphogenetic protein 5 (1831_at) (selected transcripts): +18 % respect to control
- Real Time PCR Treatment Effect: carbonic anhydrase II (40095_at) (selected transcripts): No change
- Real Time PCR Treatment Effect: cartilage oligomeric matrix protein (40161_at) (selected transcripts): No change
- Real Time PCR Treatment Effect: cathepsin K (128_at) (selected transcripts): No change
- Real Time PCR Treatment Effect: osteopontin (2092_s_at) (selected transcripts): No change
- Real Time PCR Treatment Effect: pre-pro-alpha-2 type I collagen (32306_g_at) (selected transcripts): +62 % respect to control

Molecule: cyclo[4-(NH2—C2H4—NH—CO—O)Pro-Phg-DTrp-Lys-Tyr(4-Bzl)-Phe] [SOM230]
- Binding to somatostatin receptors (somatostatin receptors): binds to all somatostatin receptors except SSTR4

B1: FGF23CTP: unique 75-mer COOH-terminal peptide of FGF-23, SEQ ID NO: 2 (peptide, listed as Homo sapiens)
chain: HTRSAEDDSERDPLNVLKPRARMTPAPASCSQELPSAEDNSPMASDPLGVVRGGRVNTHAGGTGPEGCRPFAKFI
- Thickness of the inner nuclear layer, outer nuclear layer, ganglion cell layer vs PBS (retinal neuronal layers; five days after injection): no marked difference
- Ganglion cell layer thickness, average (retinal neuronal layers; [2]): 2.25 mm
- Inner nuclear layer thickness, average (retinal neuronal layers; [2]): 6 mm
- Outer nuclear layer thickness, average (retinal neuronal layers; [2]): 10.63 mm
- Neuronal damage in the eye (retinal neuronal layers; three animals, five days after injection): not to induce any neuronal damage
- Proliferation score, Mean Difference (paired t-test, treated right eye vs PBS left eye) ([1]; 6 μg intravitreal, DF 28, P-Value 0.0375): −3.172
- Effect on proliferative component of retinal angiopathy / proliferation score ([1]; intravitreal injection, b229 p=0.018, b476 paired t-test p=0.04): significantly inhibited; also recorded: reaches statistical significance
- avascular zone [1, 3]: 1 (7×) and 2 (4×) and 0 (3×) and 3 (7×) and 4 (4×) and 7 and 6 (2×) and 5
- blood vessel tufts [1, 3]: 6 (4×) and 2 (3×) and 4 (3×) and 1 (2×) and 3 and 5 (2×) and 0 (2×) and 7 (4×) and 10 (3×) and 14 (2×) and 13 and 11 and 9
- large clusters of prolif. [1, 3]: 0 (16×) and 1 (6×) and 2 (2×) and 3 (2×) and 4 (2×) and 5
- proliferation sum [1, 3]: 7 (2×) and 2 (3×) and 4 (4×) and 1 (2×) and 6 (4×) and 5 and 0 (2×) and 8 (2×) and 10 (2×) and 11 and 17 and 12 (2×) and 18 (2×) and 14
- tortuosity of vessels [1, 3]: 0 (8×) and 2 (7×) and 3 and 1 (9×) and 5 and 6 (2×) and 4
- Paired t-test avascular zone: Mean Difference [1, 4]: −0.034
- Paired t-test proliferation sum: Mean Difference [1, 4]: −2.724
- Paired t-test tortuosity of the vessels: Mean Difference [1, 4]: −0.517
